Results taken from patent publication US20260209348A1 (University of California, published 2026).

Target: T1, ROR1-Ig (human, UniProt Q01973 30-406)
T1 construct: extracellular domain; also called control ROR1-Ig; not shown: CH2-CH3 constant region domains of human IgG1 (same human IgG domains as ROR2-Ig)
Experiment: flow cytometry, ROR1-Ig then anti-human IgG-PE, Jurkat cells transfected with the CAR
Procedure: All cells were assessed after 48 hours by flow cytometry for binding of recombinant human ROR2-Ig protein comprised of the ROR2 extracellular domain and the CH2-CH3 constant region domains of human IgG1. Cells were stained on ice for 20 minutes with 1 μg/ml of recombinant ROR2-Ig (upper panel) or 1 μg/ml of control ROR1-Ig (lower panel). washed, stained for an additional 20 minutes on ice with phycoerythrin (PE)-conjugated anti-human IgG1 antibody, washed and analyzed by flow cytometry. Shaded histograms depict the relative fluorescence intensity (x axis) of viable cells, as determined by light scatter characteristics, stained with either ROR2-Ig or ROR1-Ig compared to cells stained with the anti-human IgG1-PE antibody only (open histograms). […] Conversely, ROR1 CAR transfected cells bind only to ROR1-Ig.

T1 sequence (Q01973 30-406): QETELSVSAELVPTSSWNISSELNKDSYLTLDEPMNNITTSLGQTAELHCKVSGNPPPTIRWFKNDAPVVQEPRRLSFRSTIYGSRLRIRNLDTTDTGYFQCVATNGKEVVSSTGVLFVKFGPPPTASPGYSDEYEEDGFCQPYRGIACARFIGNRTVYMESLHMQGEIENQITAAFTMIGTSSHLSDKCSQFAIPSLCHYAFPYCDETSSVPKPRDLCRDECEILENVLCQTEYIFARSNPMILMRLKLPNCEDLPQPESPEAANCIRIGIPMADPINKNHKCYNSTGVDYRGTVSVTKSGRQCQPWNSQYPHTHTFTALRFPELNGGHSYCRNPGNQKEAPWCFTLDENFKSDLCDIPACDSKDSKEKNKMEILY

B1: h6E6-116 anti-human ROR2 chimeric antigen receptor (other, not shown: small tags and cut ends)
chain: EVQLVESGGGLVKPGGSLRLSCAASGFTFSTYGVSWVRQAPGKGLEWVSTISSGGGYTHYAGSVKGRFTISRDNAKNSLYLQMNSLRAEDTAVYYCARHPRDFSYALDYWGQGTTVTVSSEIVMTQSPATLSVSPGERATLSCRASQDVGHYLAWYQQKPGQAPRLLIYWASTRATGIPARFSGSGSGTEFTLTISSLQSEDFAVYYCQQYNIYPWTFGQGTKVEIK
notes: Expressed on transfected Jurkat cells
B1: no binding (tested: 1 ug/ml).
